Experimental data as given in US20260193293A1, “PEPTIDES CAPABLE OF INHIBITING PROTEIN-PROTEIN INTERACTIONS AT GABAB1A SUBUNIT AND USES THEREOF” (UNIVERSITY OF COPENHAGEN, priority 2022, published 2026).
Non-standard residues stand in square brackets, D forms with d. NMeW = CN[C@@H](Cc1c[nH]c2ccccc12)C(=O)O; NMeR = CN[C@@H](CCCNC(=N)N)C(=O)O; NMeI = CC[C@H](C)[C@H](NC)C(=O)O; NMeT = CN[C@H](C(=O)O)[C@@H](C)O; NMeE = CN[C@@H](CCC(=O)O)C(=O)O; NMeD = CN[C@@H](CC(=O)O)C(=O)O; NMeV = CN[C@H](C(=O)O)C(C)C; NMeS = CN[C@@H](CO)C(=O)O; NMeA = CN[C@@H](C)C(=O)O; Sar = CNCC(=O)O

B1: PWAIVWGP(N-Me-T)VSRED (peptide)
peptide: Ac-PWAIVWGP[NMeT]VSRED-NH2
SMILES: CC[C@H](C)[C@H](NC(=O)[C@H](C)NC(=O)[C@H](Cc1c[nH]c2ccccc12)NC(=O)[C@@H]1CCCN1C(C)=O)C(=O)N[C@H](C(=O)N[C@@H](Cc1c[nH]c2ccccc12)C(=O)NCC(=O)N1CCC[C@H]1C(=O)N(C)[C@H](C(=O)N[C@H](C(=O)N[C@@H](CO)C(=O)N[C@@H](CCCNC(=N)N)C(=O)N[C@@H](CCC(=O)O)C(=O)N[C@@H](CC(=O)O)C(N)=O)C(C)C)[C@@H](C)O)C(C)C
B2: …(N-Me-S)RED (peptide)
peptide: Ac-PWAIVWGPTV[NMeS]RED-NH2
SMILES: CC[C@H](C)[C@H](NC(=O)[C@H](C)NC(=O)[C@H](Cc1c[nH]c2ccccc12)NC(=O)[C@@H]1CCCN1C(C)=O)C(=O)N[C@H](C(=O)N[C@@H](Cc1c[nH]c2ccccc12)C(=O)NCC(=O)N1CCC[C@H]1C(=O)N[C@H](C(=O)N[C@H](C(=O)N(C)[C@@H](CO)C(=O)N[C@@H](CCCNC(=N)N)C(=O)N[C@@H](CCC(=O)O)C(=O)N[C@@H](CC(=O)O)C(N)=O)C(C)C)[C@@H](C)O)C(C)C
B3: …(N-Me-E)D (peptide)
peptide: Ac-PWAIVWGPTVSR[NMeE]D-NH2
SMILES: CC[C@H](C)[C@H](NC(=O)[C@H](C)NC(=O)[C@H](Cc1c[nH]c2ccccc12)NC(=O)[C@@H]1CCCN1C(C)=O)C(=O)N[C@H](C(=O)N[C@@H](Cc1c[nH]c2ccccc12)C(=O)NCC(=O)N1CCC[C@H]1C(=O)N[C@H](C(=O)N[C@H](C(=O)N[C@@H](CO)C(=O)N[C@@H](CCCNC(=N)N)C(=O)N(C)[C@@H](CCC(=O)O)C(=O)N[C@@H](CC(=O)O)C(N)=O)C(C)C)[C@@H](C)O)C(C)C
B4: PWA(N-Me-I)… (peptide)
peptide: Ac-PWA[NMeI]VWGPTVSRED-NH2
SMILES: CC[C@H](C)[C@@H](C(=O)N[C@H](C(=O)N[C@@H](Cc1c[nH]c2ccccc12)C(=O)NCC(=O)N1CCC[C@H]1C(=O)N[C@H](C(=O)N[C@H](C(=O)N[C@@H](CO)C(=O)N[C@@H](CCCNC(=N)N)C(=O)N[C@@H](CCC(=O)O)C(=O)N[C@@H](CC(=O)O)C(N)=O)C(C)C)[C@@H](C)O)C(C)C)N(C)C(=O)[C@H](C)NC(=O)[C@H](Cc1c[nH]c2ccccc12)NC(=O)[C@@H]1CCCN1C(C)=O
B5: …(N-Me-D) (peptide)
peptide: Ac-PWAIVWGPTVSRE[NMeD]-NH2
SMILES: CC[C@H](C)[C@H](NC(=O)[C@H](C)NC(=O)[C@H](Cc1c[nH]c2ccccc12)NC(=O)[C@@H]1CCCN1C(C)=O)C(=O)N[C@H](C(=O)N[C@@H](Cc1c[nH]c2ccccc12)C(=O)NCC(=O)N1CCC[C@H]1C(=O)N[C@H](C(=O)N[C@H](C(=O)N[C@@H](CO)C(=O)N[C@@H](CCCNC(=N)N)C(=O)N[C@@H](CCC(=O)O)C(=O)N(C)[C@@H](CC(=O)O)C(N)=O)C(C)C)[C@@H](C)O)C(C)C
B6: PWAIV(N-Me-W)GPTVSRED (peptide)
peptide: Ac-PWAIV[NMeW]GPTVSRED-NH2
SMILES: CC[C@H](C)[C@H](NC(=O)[C@H](C)NC(=O)[C@H](Cc1c[nH]c2ccccc12)NC(=O)[C@@H]1CCCN1C(C)=O)C(=O)N[C@H](C(=O)N(C)[C@@H](Cc1c[nH]c2ccccc12)C(=O)NCC(=O)N1CCC[C@H]1C(=O)N[C@H](C(=O)N[C@H](C(=O)N[C@@H](CO)C(=O)N[C@@H](CCCNC(=N)N)C(=O)N[C@@H](CCC(=O)O)C(=O)N[C@@H](CC(=O)O)C(N)=O)C(C)C)[C@@H](C)O)C(C)C
B7: …(N-Me-R)ED (peptide)
peptide: Ac-PWAIVWGPTVS[NMeR]ED-NH2
SMILES: CC[C@H](C)[C@H](NC(=O)[C@H](C)NC(=O)[C@H](Cc1c[nH]c2ccccc12)NC(=O)[C@@H]1CCCN1C(C)=O)C(=O)N[C@H](C(=O)N[C@@H](Cc1c[nH]c2ccccc12)C(=O)NCC(=O)N1CCC[C@H]1C(=O)N[C@H](C(=O)N[C@H](C(=O)N[C@@H](CO)C(=O)N(C)[C@@H](CCCNC(=N)N)C(=O)N[C@@H](CCC(=O)O)C(=O)N[C@@H](CC(=O)O)C(N)=O)C(C)C)[C@@H](C)O)C(C)C
B8: PWAIVW(N-Me-G)PTVSRED (peptide)
peptide: Ac-PWAIVW[Sar]PTVSRED-NH2
SMILES: CC[C@H](C)[C@H](NC(=O)[C@H](C)NC(=O)[C@H](Cc1c[nH]c2ccccc12)NC(=O)[C@@H]1CCCN1C(C)=O)C(=O)N[C@H](C(=O)N[C@@H](Cc1c[nH]c2ccccc12)C(=O)N(C)CC(=O)N1CCC[C@H]1C(=O)N[C@H](C(=O)N[C@H](C(=O)N[C@@H](CO)C(=O)N[C@@H](CCCNC(=N)N)C(=O)N[C@@H](CCC(=O)O)C(=O)N[C@@H](CC(=O)O)C(N)=O)C(C)C)[C@@H](C)O)C(C)C
B9: P(N-Me-W)… (peptide)
peptide: Ac-P[NMeW]AIVWGPTVSRED-NH2
SMILES: CC[C@H](C)[C@H](NC(=O)[C@H](C)NC(=O)[C@H](Cc1c[nH]c2ccccc12)N(C)C(=O)[C@@H]1CCCN1C(C)=O)C(=O)N[C@H](C(=O)N[C@@H](Cc1c[nH]c2ccccc12)C(=O)NCC(=O)N1CCC[C@H]1C(=O)N[C@H](C(=O)N[C@H](C(=O)N[C@@H](CO)C(=O)N[C@@H](CCCNC(=N)N)C(=O)N[C@@H](CCC(=O)O)C(=O)N[C@@H](CC(=O)O)C(N)=O)C(C)C)[C@@H](C)O)C(C)C
B10: PW(N-Me-A)… (peptide)
peptide: Ac-PW[NMeA]IVWGPTVSRED-NH2
SMILES: CC[C@H](C)[C@H](NC(=O)[C@H](C)N(C)C(=O)[C@H](Cc1c[nH]c2ccccc12)NC(=O)[C@@H]1CCCN1C(C)=O)C(=O)N[C@H](C(=O)N[C@@H](Cc1c[nH]c2ccccc12)C(=O)NCC(=O)N1CCC[C@H]1C(=O)N[C@H](C(=O)N[C@H](C(=O)N[C@@H](CO)C(=O)N[C@@H](CCCNC(=N)N)C(=O)N[C@@H](CCC(=O)O)C(=O)N[C@@H](CC(=O)O)C(N)=O)C(C)C)[C@@H](C)O)C(C)C
B11: …(N-Me-V)SRED (peptide)
peptide: Ac-PWAIVWGPT[NMeV]SRED-NH2
SMILES: CC[C@H](C)[C@H](NC(=O)[C@H](C)NC(=O)[C@H](Cc1c[nH]c2ccccc12)NC(=O)[C@@H]1CCCN1C(C)=O)C(=O)N[C@H](C(=O)N[C@@H](Cc1c[nH]c2ccccc12)C(=O)NCC(=O)N1CCC[C@H]1C(=O)N[C@H](C(=O)N(C)[C@H](C(=O)N[C@@H](CO)C(=O)N[C@@H](CCCNC(=N)N)C(=O)N[C@@H](CCC(=O)O)C(=O)N[C@@H](CC(=O)O)C(N)=O)C(C)C)[C@@H](C)O)C(C)C
B12: PWAI(N-Me-V)… (peptide)
peptide: Ac-PWAI[NMeV]WGPTVSRED-NH2
SMILES: CC[C@H](C)[C@H](NC(=O)[C@H](C)NC(=O)[C@H](Cc1c[nH]c2ccccc12)NC(=O)[C@@H]1CCCN1C(C)=O)C(=O)N(C)[C@H](C(=O)N[C@@H](Cc1c[nH]c2ccccc12)C(=O)NCC(=O)N1CCC[C@H]1C(=O)N[C@H](C(=O)N[C@H](C(=O)N[C@@H](CO)C(=O)N[C@@H](CCCNC(=N)N)C(=O)N[C@@H](CCC(=O)O)C(=O)N[C@@H](CC(=O)O)C(N)=O)C(C)C)[C@@H](C)O)C(C)C

Each binder was assayed against Sushi domains (SD1/2) protein of the GABAB1a (GB1a) subunit, recombinant (assay: FP competition).
Sequence of Sushi domains (SD1/2) protein of the GABAB1a (GB1a) subunit, recombinant (Q9Z0U4 29-158): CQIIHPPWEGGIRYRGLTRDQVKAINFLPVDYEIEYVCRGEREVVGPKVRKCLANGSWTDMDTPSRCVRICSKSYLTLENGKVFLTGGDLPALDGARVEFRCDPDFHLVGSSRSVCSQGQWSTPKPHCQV
Ac-EDDSDVWWGPADTD-NH2 showed a Ki of 332 nM.
Binder B1 has a Ki of 1260 nM.
With B2 the Ki was 1040 nM.
Ac-EDDSDVWWGGSDTD-NH2 gave a Ki of 204 nM.
Ac-EDDSDVWWGGADHD-NH2 gave a Ki of 739 nM.
With Ac-EDDSDVDWGGADTD-NH2 the Ki was 4800 nM.
Ac-EDDSDVWWGGADWD-NH2 showed a Ki of 459 nM.
Ac-RRRRRRRREAAAKEDDDWIDWYDSDDD-NH2 [R8-RL-16 (…)] was tested, and the Ki was 314 nM.
Binder Ac-EDDDWIDWYDSDDDRRRRRRRR-NH2 [16-R8 (…)] has a Ki of 65 nM.
In the case of Ac-EDDSIVWWGGADTD-NH2, the Ki is reported as 243 nM.
With B3 the Ki was 523 nM.
Ac-EDDSDVIWGGADTD-NH2 showed a Ki of 951 nM.
Ac-EDDSDVWWDGADTD-NH2 showed a Ki of 429 nM.
Work on Ac-KDDSDVWWGGADTD-NH2 yielded a Ki of 1520 nM.
B4 showed a Ki of 370 nM.
Binder Ac-EDDSFVWWGGADTD-NH2 has a Ki of 142 nM.
With B5 the Ki was 434 nM.
B6 showed a Ki of 636 nM.
With Ac-EDDSDIWWGGADTD-NH2 the Ki was 401 nM.
With Ac-EDDSDVWWHGADTD-NH2 the Ki was 270 nM.
Ac-EDDSYVWWGGADTD-NH2 was tested, and the Ki was 191 nM.
B7 gave a Ki of 502 nM.
Ac-EDDSDVYWGGADTD-NH2 gave a Ki of 3600 nM.
With Ac-EDDSDVWWGGYDTD-NH2 the Ki was 255 nM.
Binder Ac-EDDSDVWWGGADED-NH2 has a Ki of 337 nM.
Ac-RRRRRRRRGGGGSEDDDWIDWYDSDDD-NH2 [R8-FL-16 (…)] was tested, and the Ki was 280 nM.
Ac-EDDWDVWWGGADTD-NH2 was tested, and the Ki was 257 nM.
In the case of B8, the Ki is reported as 58300 nM.
Work on B9 yielded a Ki of 833 nM.
For Ac-EDDSDVWWGGHDTD-NH2, the Ki was 346 nM.
B10 was tested, and the Ki was 7230 nM.
B11 showed a Ki of 1780 nM.
B12 gave a Ki of 7000 nM.
